# Test results reported in the supplement of paper PMC12764529.
# ± gives the half width of the 95% confidence interval.
# Columns and labels:
# [1] = folding stability dG unfold from trypsin proteolysis; higher = more stable
# Method in brief: (§1)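 Designed mini-proteins (under 80 residues, no cysteine) in a PA-tagged cDNA display construct were digested with trypsin and chymotrypsin. Each protease was used at 11 concentrations (threefold dilutions) plus a no-protease condition, followed by sequencing. K50 was inferred by Bayesian fitting of sequencing counts, and unfolding free energy was derived against a sequence-predicted unfolded-state K50 and a shared folded-state K50, per protease or combined. Only designs with AlphaFold2 dimer inter-PAE above 15 were kept.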
# [2] = folding stability dG unfold from chymotrypsin proteolysis; higher = more stable
# Method in brief: as §1
# [3] = folding stability dG unfold (combined trypsin and chymotrypsin); higher = more stable
# Method in brief: as §1
Sequence,folding stability dG unfold [1] [kcal/mol],folding stability dG unfold [2] [kcal/mol],folding stability dG unfold [3] [kcal/mol]
SAGGSAGGGMSLEAPIGEIEKPEGTDTVVITVYENGKWHTIPLPNFKNIKIEKDPNSDVVTILLSAGGSAGG [r6_806_JUSTAS],1.29 ± 0.1,1.71 ± 0.13,1.52 ± 0.18
KTRHIPIRDALDEAEELIDEGPRMVKITIYNNNGQKHEIETLKDILDKLKSNFPGMPPDNMKVQVEVIPPPS [r1_325_TrROS],-0.297 ± 0.68,-0.0938 ± 0.22,-0.211 ± 0.3
SAGKIKIEVVKREDGYVVVKIRFEDTGEELVITVPKEDEEKVKELAEELAEKLKEEGIEVEVEVRELPPSAG [r5_815_TrROS_Hall],2.53 ± 0.11,3.09 ± 0.21,2.86 ± 0.22
SAGGYKFTIIARFDSVEEAKEWVEEIIRDIFPDNGIEVEVEVETDPENGGVYVKATIEVPPPDPDDFSAGGS [r8_17_TrROS],2.98 ± 0.17,4.36 ± 0.23,4.01 ± 0.3
SAGGSAGGSAGTITINGKPITIEKLDNGYYKVKVNGKWYEIKPGEKIELPKGATVSIEKVSAGGSAGGSAGG [r11_147_TrROS_Hall],1.21 ± 0.069,2.6 ± 0.035,2.27 ± 0.14
SAGGSAGGSSMTFISTSTSPGNGYTYNIYSQPGKVVVTTTAPDGTVSVTTVEVSPDTSVTVTAASAGGSAGG [r6_380_JUSTAS],1.16 ± 0.045,1.36 ± 0.12,1.3 ± 0.085
SAGGKRRTINFDIEGMTPEKFVHMARMAIRNLPDPEQVTITINMRNPMWRRWFIELAKELPGIEIEFMSAGG [r13_718_TrROS],2.52 ± 0.061,3.43 ± 0.044,3.19 ± 0.15
SAGGGMKLTITVTNADGSTTTETLTLGDLEKALEFLESDPTASLASIEIKPVPDTSEVEMNVSLTVPASAGG [r13_796_JUSTAS],1.29 ± 0.056,1.55 ± 0.035,1.47 ± 0.071
SLKPGETKTLTLLIRTKDPEKTAEELAEEARKEIEELLPPGVKIEVKVTSVEPLPETGEVDVTVEVTVTASA [r9_706_TrMRF],3.02 ± 0.19,3.01 ± 0.06,2.97 ± 0.13
SGATVTVSKDGRTYTVTVSPNATVTVEVRDPTSTSTYTQTVPPGQPTTVSLPLPSDVSSSVTIASIDVGASA [r9_1152_JUSTAS],0.439 ± 0.025,0.656 ± 0.088,0.592 ± 0.072
SAGGLPGLSAEELARRLAERLREALAAAGYTVEIELTVEITVTDEDGRTRTFTFTLRIRVEPPPPPPSAGGS [r16_550_TrROS_Hall],4.05 ± 0.069,5.15 ± 0.074,4.8 ± 0.12
SAGGPPIRIKVELWDPNGKEYTHTFPFGEPLDQILDNASKQFGLPLRVEDIEYDPDGMITITIRIPDSAGGS [r8_285_TrROS],1.75 ± 0.036,1.77 ± 0.027,1.8 ± 0.1
SAGGSAMPDMTAEELAAEVAKKLPPGEKVLIKIRNKNGETKTFELGEDISDLPADEVTEIEIEVLPSAGGSA [r15_50_TrROS_Hall],0.248 ± 0.073,1.05 ± 0.036,0.781 ± 0.054
SAGGSAGGMTLTVDLPLPDGGTVRLEVEPLPDGTVRVRLTYPDGRKAEFETSAPVEVLLERAAGSAGGSAGG [r6_808_TrMRF],1.61 ± 0.026,3.05 ± 0.054,2.69 ± 0.086
SAGMPPTTVEVKVTVVKTPEGYEVVAEVVTPDRTETLTIPPHLGLEEAKARLEAVLAERGLTLVDWTLESAG [r5_305_JUSTAS],2.71 ± 0.047,2.65 ± 0.041,2.65 ± 0.057
SAGGSAGGSAGGSAPYPNTVVPTPLLSSVVTETTVEFFPDGTVVPVSTTTTVVLVYRLLSAGGSAGGSAGGS [r4_288_JUSTAS],3.54 ± 0.13,4.75 ± 0.12,4.53 ± 0.15
SAGMKKKKIKKVEIEIKKGEKTIRVKLENGEEIEYKFKEEDLEEALKKIAEKLGLKKGDKIKIVEIEIESAG [r5_923_TrROS_Hall],1.16 ± 0.12,0.907 ± 0.13,1.29 ± 0.33
SAGGSAGGSAGGSMPIVRIEVKHPDQKHTFFIPPDMPLEDIADELASQYPNVEVKIEPVSAGGSAGGSAGGS [r4_155_TrROS],0.355 ± 0.091,1.33 ± 0.11,0.935 ± 0.21
SAGGSAGGSAGGVKYLTLTLPDGTVIKVPVDEPVEIRGEDGRPVEIVEAKVTEGPPGLGSAGGSAGGSAGGS [r10_20_JUSTAS],0.963 ± 0.042,2.326 ± 0.021,1.94 ± 0.072
SGMDTVTPTTSTTQYFVEPNPEPVLSISTTTDTTTDPANPGVVTVTTTTTITDPRTGTTTTTPTTTTVPASA [r9_342_JUSTAS],0.142 ± 0.019,-0.564 ± 0.14,-0.146 ± 0.18
SAGGSAGGSANRKVIQFDSPEEILEAIDEAPEDDPVIIEWHDPDGGEPWWIKFDGDEIELIMSAGGSAGGSA [r18_407_TrROS],-0.66 ± 0.23,-0.277 ± 0.41,-0.511 ± 0.45
